Laboratory results from doi:10.1101/201277 (bioRxiv, 2017).
Like-named read-outs stand apart in the source and are kept apart here.

B1: fructose-1-kinase (FruK), recombinant, separately purified (enzyme, E. coli, UniProt P0AEW9 1-312, looked up)
chain: MSRRVATITLNPAYDLVGFCPEIERGEVNLVKTTGLHAAGKGINVAKVLKDLGIDVTVGGFLGKDNQDGFQQLFSELGIANRFQVVQGRTRINVKLTEKDGEVTDFNFSGFEVTPADWERFVTDSLSWLGQFDMVCVSGSLPSGVSPEAFTDWMTRLRSQCPCIIFDSSREALVAGLKAAPWLVKPNRRELEIWAGRKLPEMKDVIEAAHALREQGIAHVVISLGAEGALWVNASGEWIAKPPSVDVVSTVGAGDSMVGGLIYGLLMRESSEHTLRLATAVAALAVSQSNVGITDRPQLAAMMARVDLQPFN
B2: catabolite repressor activator protein (Cra), wild-type (natural protein, E. coli, UniProt P0ACP1 1-334, looked up)
chain: MKLDEIARLAGVSRTTASYVINGKAKQYRVSDKTVEKVMAVVREHNYHPNAVAAGLRAGRTRSIGLVIPDLENTSYTRIANYLERQARQRGYQLLIACSEDQPDNEMRCIEHLLQRQVDAIIVSTSLPPEHPFYQRWANDPFPIVALDRALDREHFTSVVGADQDDAEMLAEELRKFPAETVLYLGALPELSVSFLREQGFRTAWKDDPREVHFLYANSYEREAAAQLFEKWLETHPMPQALFTTSFALLQGVMDVTLRRDGKLPSDLAIATFGDNELLDFLQCPVLAVAQRHRDVAERVLEIVLASLDEPRKPKPGLTRIKRNLYRRGVLSRS
B3: aceB operator (filter binding) (dsDNA)
DNA 1: TGTTGTGTGGGCTGAATCGCTTAACGTCACACAGG
DNA 2: CCTGTGTGACGTTAAGCGATTCAGCCCACACAACA
B4: fruB distal operator (filter binding) (dsDNA)
DNA 1: TGTTGTGTGGGAGGCTGAATCGTTTCAATCACACAGG
DNA 2: CCTGTGTGATTGAAACGATTCAGCCTCCCACACAACA
B5: aceB operator (BLI) (dsDNA)
DNA 1: ATGCATGTTGTGTGGGCTGAATCGCTTAACGTCACACAGGTGTCC
DNA 2: GGACACCTGTGTGACGTTAAGCGATTCAGCCCACACAACATGCAT
B6: fruB proximal operator (BLI) (dsDNA)
DNA 1: ATGCATGTTGTGTGGTTCTTGAAACGTTTCAGCTCACACAGGTCC
DNA 2: GGACCTGTGTGAGCTGAAACGTTTCAAGAACCACACAACATGCAT
B7: pfkA operator (BLI) (dsDNA)
DNA 1: ATGCATGTTGTGTGGCCTGAATCAATTCAGCTCACACAGGTGTCC
DNA 2: GGACACCTGTGTGAGCTGAATTGATTCAGGCCACACAACATGCAT
B8: fruB proximal operator (filter binding) (dsDNA)
DNA 1: TGTTGTGTGGTTCTTGAAACGTTTCAGCTCACACAGG
DNA 2: CCTGTGTGAGCTGAAACGTTTCAAGAACCACACAACA

What was measured:
[1] = molecular target: B2; test: pull-down
[2] = molecular target: the molecule itself; test: elution from a phosphocellulose column
Cra (FruR) [3] = molecular target: T1, Cra (FruR) (Escherichia coli strain 3.300 …, UniProt P0ACP1 1-334); test: filter binding
[4] = molecular target: T2, Cra (FruR);FruK (fructose-1-kinase, 1-phosphofructokinase) (Escherichia coli strain 3.300 …, UniProt P0ACP1;P0AEW9 1-334;1-312, |); test: BLI
Cra (FruR) [5] = molecular target: T1, Cra (FruR); test: BLI
[6] = molecular target: T2, Cra (FruR);FruK (fructose-1-kinase, …); test: BLI; remark: listed apart in the source
[7] = molecular target: T2, Cra (FruR);FruK (fructose-1-kinase, …); test: BLI; remark: listed apart in the source

Row | Binder | Kd (Cra (FruR) [3]) [nM] | binding result (Cra (FruR) [5]) | also measured
1 | B1 | – | – | Kd [1]: < 100 nM
2 | B2 | – | – | stoichiometry N [2]: 2
3 | B3 | 1.7 | – | –
4 | B4 | 0.018 | – | –
5 | B5 | – | binds | binding result [4]: binds
6 | B6 | – | binds | binding result [6]: binds
7 | B7 | – | binds | binding result [7]: binds
8 | B8 | 0.018 | – | –
